Experimental data taken from PMC5537068, “Endoglucanase activity at a second site in Pyrococcus furiosus triosephosphate isomerase—Promiscuity or compensation for a metabolic handicap?” (FEBS Open Bio, 2017).

Legend:
[1] = target: the molecule itself; assay: AUC; sedimentation velocity, Tris buffer; data not shown; told in one sentence together with SDS/PAGE and gel filtration
[2] = target: the molecule itself; assay: SDS/PAGE (zymogram); 12% SDS/PAGE under standard conditions, gel copolymerised with CM-cellulose; residual oligomers resist SDS and boiling; bands identified as PfuTIM by in-gel digestion and MALDI-TOF MS
[3] = target: the molecule itself; assay: AUC; sedimentation velocity, phosphate buffer; data not shown; told in one sentence together with SDS/PAGE and gel filtration
[4] = target: the molecule itself; assay: native gel or EMSA; native PAGE at 5, 7.5, 10, 12.5 and 15% acrylamide with HMW markers, Ferguson plot of molecular weight
[5] = target: the molecule itself; assay: SEC; gel filtration chromatography in phosphate buffer

B1: Pyrococcus furiosus triosephosphate isomerase (PfuTIM) (enzyme, UniProt P62002 1-228, looked up)
chain: MAKLKEPIIAINFKTYIEATGKRALEIAKAAEKVYKETGVTIVVAPQLVDLRMIAESVEIPVFAQHIDPIKPGSHTGHVLPEAVKEAGAVGTLLNHSENRMILADLEAAIRRAEEVGLMTMVCSNNPAVSAAVAALNPDYVAVEPPELIGTGIPVSKAKPEVITNTVELVKKVNPEVKVLCGAGISTGEDVKKAIELGTVGVLLASGVTKAKDPEKAIWDLVSGIIKE
notes: also called TPI; source: E. coli M15[pREP4], purified (Ni-NTA, gel filtration)
stoichiometry N [1]: 4
stoichiometry N [2]: 2
stoichiometry N [3]: 3
stoichiometry N [4]: 8
stoichiometry N [5]: 6
